The source of these data is article PMC5692578.

The target in this experiment is Mcm2-7 hexamer (S. cerevisiae) (UniProt P29469). Kind of experiment: cryo-EM structure.

In turn, “Mcm2-7 hexamer, P29469;P24279;P30665;P29496;P53091;P38132” showed a stoichiometry N of 2 hexamers.
